From US20240092922A1 (EUCURE BEIJING BIOPHARMA, published 2024) come the findings set out here.

A word on the Kd: it is the equilibrium constant for the complex coming apart. For orientation: koff means the first-order rate constant of dissociation. One may read the kon as the rate constant with which the complex forms.

For assay [1], the target named is T1, chimeric (mouse and human) 4-1BB (c4-1BB) on transfected CHO cells (chimeric (mouse and human)).
T1 construct: also called chi4-1BB; CHO-c4-1BB
Briefly: flow cytometry on transfected CHO cells.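 Also: antibodies tested at 1 µg/ml on CHO cells for 30 min at 4 °C, binding detected with FITC- or PE-labeled anti-mouse IgG Fc secondary by flow cytometry.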 Background: A flow cytometer gives signals particle by particle.
Description: (§1) 25 μl CHO cells were added to each well. 25 μl purified anti-h4-1BB antibodies (1 μg/ml) were added to each well and were incubated at 4° C. for 30 minutes.
(§2) After being washed with PBS (1200 rmp, 5 min) twice, 50 μl of FITC labeled anti-mouse IgG Fc antibody (anti-mIgG Fc-FITC) was added into each well at 1:100 dilution, followed by incubating at 4° C. for 30 minutes, and then PBS wash (1200 rmp, 5 min). In some cases, PE labeled anti-mouse IgG Fc antibody (anti-mIgG Fc-PE) was used to label the antibody instead, and was added into each tested well at 1:500 dilution. The signals for FITC and PE were determined by flow cytometry.

The target in assay [2] is T2, monkey (Rhesus macaque) 4-1BB (r4-1BB) on transfected CHO cells (monkey (Rhesus macaque), UniProt Q07011 24-255 (human entry)).
T2 construct: also called rm4-1BB; CHO-r4-1BB
T2 chain: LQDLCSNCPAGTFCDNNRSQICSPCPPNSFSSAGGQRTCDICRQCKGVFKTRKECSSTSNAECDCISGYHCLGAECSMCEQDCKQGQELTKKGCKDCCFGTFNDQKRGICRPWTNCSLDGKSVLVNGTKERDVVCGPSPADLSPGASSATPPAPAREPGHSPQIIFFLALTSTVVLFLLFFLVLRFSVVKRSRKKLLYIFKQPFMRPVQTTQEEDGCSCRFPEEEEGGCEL
Briefly: flow cytometry on transfected CHO cells.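 Also: antibodies tested at 1 µg/ml on CHO cells for 30 min at 4 °C, binding detected with FITC- or PE-labeled anti-mouse IgG Fc secondary by flow cytometry.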
Description: as §1, §2

Assay [3] deals with T3, human 4-1BB (h4-1BB) on transiently transfected CHO cells (human, UniProt Q07011 24-255).
T3 construct: also called TNFRSF9; CD137
Description: flow cytometry, CHO cells transfected with human 4-1BB, antibody at 10 µg/ml.
Description: (§3) 25 μl CHO cells transiently transfected with human 4-1BB were added to each well in a plate. The purified antibodies were titrated to final concentrations of 10, 1, 0.1, 0.01, 0.001 μg/ml. The titrated antibodies were added to each well at 4° C. and incubated for 30 minutes.
(§4) After being washed with phosphate-buffered saline (PBS) (1200 rpm, 5 minutes) twice, 50 μl of FITC labeled anti-mouse IgG Fc antibody (anti-mIgG Fc-FITC) at 1:100 dilution was added into each well, and incubated for 30 minutes at 4° C., followed by PBS wash (1200 rpm, 5 minutes). The signal for FITC was detected by flow cytometry.

The target in assay [4] is T4, mouse 4-1BB (m4-1BB) on transfected CHO cells (mouse, UniProt P20334 24-256).
T4 construct: also called CHO-m4-1BB
Description: flow cytometry on CHO cells transfected with mouse 4-1BB.
Description: as §1, §2

The target in assay [5] is T3, human 4-1BB (h4-1BB) on transiently …. Description: flow cytometry, CHO cells transfected with human 4-1BB, antibody at 1 µg/ml.
Description: as §3, §4
The target is the same in assay [6]. Description: flow cytometry, CHO cells transfected with human 4-1BB, antibody at 0.001 µg/ml.
Description: as §3, §4
The target is the same in assay [7]. Briefly: flow cytometry, CHO cells transfected with human 4-1BB, antibody at 0.1 µg/ml.
Description: as §3, §4
Assay [8] shares this target. Description: flow cytometry, CHO cells transfected with human 4-1BB, antibody at 0.01 µg/ml.
Description: as §3, §4
The target in assay [9] is T5, Histidine-tagged human 4-1BB protein (h4-1BB-His) (human, UniProt Q07011 24-186).
T5 construct: not shown: histidine tag
Description: SPR (Biacore T200), antibody on Protein A chip, h4-1BB-His injected.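 Also: dissociation phase followed for 300 s, Kd derived as koff divided by kon from the kinetic fit.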

B1: 45-2B3 (antibody, V domains shown)
VH: QVQLQQSGPELVKPGASVKISCKTSGYAFSTSWMNWVKQRPGQGLEWIGRIYPGDGDTDYNGRFKGKATLTADKSSSTAYLQLSSLTSVDSAVYFCARLDGYYEVFYFDYWGQGTTLTVSS
VL: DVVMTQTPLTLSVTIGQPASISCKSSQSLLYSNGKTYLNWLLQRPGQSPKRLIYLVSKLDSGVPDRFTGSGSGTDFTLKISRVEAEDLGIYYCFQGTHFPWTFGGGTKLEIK
notes: mouse antibody purified from ascites
Regarding B1, the binding result in assay [1] is recorded as “binds”; in [2], “binds”; in assay [4] it was “no binding (tested: 1 µg/ml)”. The “percentage of cells with FITC signal” value in [3] worked out at 62.2%; in assay [5], 51.8%; in assay [6], 0.504%; in assay [7], 12%; in assay [8], 0.622%.

B2: 56-2A6 (antibody, V domains shown)
VH: QIQLVQSGPELKKPGETVKISCKASGYTFTNYGMNWVKQAPGKGFKWMGWINTYTGEPTYADDFKGRFAFSLEISASTAYLQINNLKNEDTATYFCARRDYLGAMDYWGQGTSVTVSS
VL: ENVLTQSPAIMSASPGEKVTMTCRASSSVSSSYLHWYQQKSGASPKLWIYSTSNLASGVPARFSGSGSGTSYSLTISSVEAEDAATYYCQQYSAYLYTFGGGTKLEIK
notes: as for B1
With B2, the values for the binding result in assay [1] and in assay [4] were “binds” and “no binding (tested: 1 µg/ml)”, respectively. Also, the “percentage of cells with FITC signal” value in [3] was found to be 46.6%; in assay [5], 40.9%; in assay [6], 0.25%; in assay [7] it was 17.1%; in assay [8], 0.89%.

B3: 6A5-H2K1-IgG2 (antibody, V domains shown)
VH: QVQLVQSGAEVKKPGSSVKLSCKASGYTFSSYWINWVRQAPGQGLEWIGNIYPSDSYTNYNQKFKDRATLTVDKSTSTAYMELSSLRSEDTAVYYCTRTWEFYYDSVFDYWGQGTLVTVSS
VL: DIQMTQSPSSLSASLGERVTITCKASQDINSYLSWYQQKPGKAPKLLIYRANRLVDGVPSRFSGSGSGQDFTLTISSLQPEDIATYYCLQYDELPPTFGGGTKVEIK
notes: humanized
As for B3, in assay [9], the Kd is 2.32 nM, the koff is 0.00155 s⁻¹ and the kon stood at 668000 M⁻¹ s⁻¹.

B4: 6A5-H3K2-IgG2 (antibody, V domains shown)
VH: QVQLVQSGAEVKKPGSSVKLSCKASGYTFSSYWINWVKQAPGQGLEWIGNIYPSDSYTNYNQKFKDKATLTVDKSTSTAYMELSSLRSEDTAVYYCTRTWEFYYDSVFDYWGQGTTLTVSS
VL: DIQMTQSPSSLSASLGERVTITCKASQDINSYLSWYQQKPGKAPKTLIYRANRLVDGVPSRFSGSGSGQDFTLTISSLQPEDIATYYCLQYDELPPTFGGGTKVEIK
notes: humanized
In [9], B4 came in with a dissociation constant Kd of 0.402 nM, a koff of 0.000825 s⁻¹ and a kon of 2.05e+06 M⁻¹ s⁻¹.

B5: 6A5-H3K3-IgG2 (antibody, V domains shown)
VH: QVQLVQSGAEVKKPGSSVKLSCKASGYTFSSYWINWVKQAPGQGLEWIGNIYPSDSYTNYNQKFKDKATLTVDKSTSTAYMELSSLRSEDTAVYYCTRTWEFYYDSVFDYWGQGTTLTVSS
VL: DIQMTQSPSSLSASLGERVTITCKASQDINSYLSWFQQKPGKAPKTLIYRANRLVDGVPSRFSGSGSGQDFTLTISSLQPEDIATYYCLQYDELPPTFGGGTKVEIK
notes: humanized
In assay [9], B5 returned a Kd of 0.252 nM, a koff of 0.000538 s⁻¹ and a kon of 2.14e+06 M⁻¹ s⁻¹.

B6: 6A5-H3K4-IgG2 (antibody, V domains shown)
VH: QVQLVQSGAEVKKPGSSVKLSCKASGYTFSSYWINWVKQAPGQGLEWIGNIYPSDSYTNYNQKFKDKATLTVDKSTSTAYMELSSLRSEDTAVYYCTRTWEFYYDSVFDYWGQGTTLTVSS
VL: DIQMTQSPSSLSASLGERVTITCKASQDINSYLSWFQQKPGKAPKTLIYRANRLVDGVPSRFSGSGSGQDYTLTISSLQPEDIATYYCLQYDELPPTFGGGTKLEIK
notes: humanized
In assay [9], B6 yielded a dissociation constant (Kd) of 0.4 nM, an off-rate (koff) of 0.000747 s⁻¹ and a kon of 1.87e+06 M⁻¹ s⁻¹.

B7: 6A5-H2K3-IgG2 (antibody, V domains shown)
VH: QVQLVQSGAEVKKPGSSVKLSCKASGYTFSSYWINWVRQAPGQGLEWIGNIYPSDSYTNYNQKFKDRATLTVDKSTSTAYMELSSLRSEDTAVYYCTRTWEFYYDSVFDYWGQGTLVTVSS
VL: DIQMTQSPSSLSASLGERVTITCKASQDINSYLSWFQQKPGKAPKTLIYRANRLVDGVPSRFSGSGSGQDFTLTISSLQPEDIATYYCLQYDELPPTFGGGTKVEIK
notes: humanized
B7: in [9], the Kd was 0.221 nM, the koff came to 0.000504 s⁻¹ and the kon was 2.28e+06 M⁻¹ s⁻¹.

B8: 6A5-H2K4-IgG2 (antibody, V domains shown)
VH: QVQLVQSGAEVKKPGSSVKLSCKASGYTFSSYWINWVRQAPGQGLEWIGNIYPSDSYTNYNQKFKDRATLTVDKSTSTAYMELSSLRSEDTAVYYCTRTWEFYYDSVFDYWGQGTLVTVSS
VL: DIQMTQSPSSLSASLGERVTITCKASQDINSYLSWFQQKPGKAPKTLIYRANRLVDGVPSRFSGSGSGQDYTLTISSLQPEDIATYYCLQYDELPPTFGGGTKLEIK
notes: humanized
In [9], B8 came in with a Kd of 0.26 nM, a koff of 0.000581 s⁻¹ and a kon of 2.24e+06 M⁻¹ s⁻¹.

B9: 6A5-H3K1-IgG2 (antibody, V domains shown)
VH: QVQLVQSGAEVKKPGSSVKLSCKASGYTFSSYWINWVKQAPGQGLEWIGNIYPSDSYTNYNQKFKDKATLTVDKSTSTAYMELSSLRSEDTAVYYCTRTWEFYYDSVFDYWGQGTTLTVSS
VL: DIQMTQSPSSLSASLGERVTITCKASQDINSYLSWYQQKPGKAPKLLIYRANRLVDGVPSRFSGSGSGQDFTLTISSLQPEDIATYYCLQYDELPPTFGGGTKVEIK
notes: humanized
In assay [9], B9 showed a Kd of 2.78 nM, a koff of 0.00181 s⁻¹ and a kon of 650000 M⁻¹ s⁻¹.

B10: 45-8F1 (antibody, V domains shown)
VH: EVQLQQSGTVLARPGASVKMSCKASGYSFTSYWMHWVKQRPGQGLEWIGVIYPGNSDTSYNQKFKGKAKLTAVTSASTAYMDLSSLTNEDSAVYYCTRGITTAPDYWGQGTTLTVSS
VL: NIVMTQSPKSMSMSVGERVTLSCKASENVGIHVSWYQQKPEQSPKLLIYGASSGYNGVPDRFTGSGSATDFTLTISSVQPEDLADYHCGQTYSYPFTFGSGTKLEIK
notes: as for B1
Regarding B10, the binding result in assay [1] is recorded as “binds”; in assay [2] it was “binds”; in assay [4], “no binding (tested: 1 µg/ml)”. Besides, the “percentage of cells with FITC signal” value in assay [3] was found to be 58.6%; in assay [5], 56.1%; in [6], 1.38%; in assay [7], 43.9%; in [8] it was 6.21%.

B11: 45-4B9 (antibody, V domains shown)
VH: EVQLQQSGPELVKPGASVKMSCKASGYTFTTYVMYWVKQRPGQGLEWIGYINPYNDDIRYNEKFKGKATLTSDRSSSTAYMELSSLTSEDSAVYLCARQGGDYWGQGTILTVSS
VL: DVQITQSPSYLAASPGETITVNCRASKNINKYLAWYQEKPGKTNKLLIYSGSTLQSGIPSRFSGSGSGTDFTLTISSLEPEDFAVYHCQQYNEYPLTFGAGTKLEMK
notes: as for B1
As for B11, the binding result is listed as “binds” in assay [1], “binds” in assay [2] and “no binding (tested: 1 µg/ml)” in [4]. The “percentage of cells with FITC signal” value in assay [3] came to 56.2%; in assay [5] it was 49.3%; in assay [6], 1.86%; in assay [7], 10.4%; in assay [8] it was 1.2%.

B12: 29-6A5 (antibody, V domains shown)
VH: QVQLQQPGAELVRPGASVKLSCKASGYTFSSYWINWVKQRPGQGLEWIGNIYPSDSYTNYNQKFKDKATLTVDKSSSTAYMQLSSPTSDDSAVYYCTRTWEFYYDSVFDYWGQGTTLTVSS
VL: DIKMTQSPSSMYASLGERVTITCKASQDINSYLSWFQQKPGKSPKTLIYRANRLVDGVPSRFSGSGSGQDYSLTISSLEYEDMGIYYCLQYDELPPTFGGGTKLEIK
notes: as for B1
Consider B12, for which the binding result in [1] is listed as “binds”; in assay [2] it was “binds”; in assay [4], “no binding (tested: 1 µg/ml)”. The “percentage of cells with FITC signal” value came to 80.5% in assay [3], 73.4% in assay [5], 70.8% in assay [7] and 47.4% in assay [8].
